Data on 16 sequences can be found in the nanobody polyreactivity screen of Harvey et al. (2022).

The nature of this data set: yeast display, Sf9 membrane polyspecificity reagent, FACS + sequencing; frameworks hold sequencing errors. Summed up:
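After 36–48 hours of galactose induction, yeast (Saccharomyces cerevisiae BJ5465) displaying a synthetic nanobody library were stained at 4 °C for 1 hour with 10% biotinylated, detergent-solubilized Sf9 membrane reagent. Streptavidin microbeads enriched the stained cells before FACS sorting into low and high (top ~1%) gates on anti-HA and streptavidin fluorescence. Each clone's polyreactivity label reflects its gate of origin.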
As for “QVQLVESGGGLVQAGGSLRLSCAASGRTFYRYAMGWYRQAPWKERELVAAITKRGSGTYYADSVKGRFTISRDNAKNTVYLQMNSLKPEDTAVYYCATDGYIRPSRPAPTQPTFNYWGQGSQVTVSS”, the “polyreactivity (PSR sort gate)” value is reported as “high polyreactivity”.
Consider “QVQLVESGGGLVQAGGSLRLSCAASGRTFRLNGMGWYRQAPGKDRELVAAITWSGGRTYYADSVKGRFTISRDNAKNTVYLQKNSLKPEDTAVYYCAAGKSSYGIPKYYYWGQGTQVTVSS”, for which the “polyreactivity (PSR sort gate)” value was “high polyreactivity”.
Under “QVQLVESGGGLDQAGGSLRLSCAASGRIFRYYTMGWYRQAPGKERELVAAISTSDDSTNYADSVKGRFTISRDNAKNTVYLQMNSLKPEDTAVYYCAADQSRVGSYQDYDYWGQGTQVTVSS” stands “low polyreactivity”.
Under “QVQLVESGGGLVQAGGSLRISCAAYGSTIVTNAMGWYRQAPVKERELVAASTSGAGTYYADSVKGRFTISRDNAKNTVYLQMNCLKTEDTAVYYCAARRYYSSGRYRFGYWGQGSQVTVSS” stands “high polyreactivity”; under “QVQLGESGGGLVQAGGSLRLSCAASGNTFFTYAMGWYRQAPGKERELVAVITSVGSTNYADSVKGRFTISRDNAKNTVYLQMNSLKPEDTAVYYCAARTRRGLARYDYWGHGTQVTVSS”, “high polyreactivity”; under “QVQLVESGGGLVQAGGSLRLSCAASGSTFGPYAMGWYRQAPGKEREFVAGISKSTSSTYYADSVKGRFTISRDNAKNTVYLQMNSLKPEDTAVYYCAAQGGRNRGYRYYWGQGTQVTVSS”, “high polyreactivity”.
For “QVQLVESGGGLVQAGGILRLSCAASGRIFGGNAMGWYRQSPGKEREFVAAITWRGGTTYYADSVKGRFTISRDNAKNTVYLQMNSLKPEDTAVYYCNAMPYTRNTGYDYWGQGTQVTVSS” the value was “high polyreactivity”; for “QVQLVESGGGLVQAGGSLRLSSAASGSIFVPYAMGWYRQAPGKEREFVAAIYSGGGNTYYADSVKGRFTISRDNAKNTVYLQMNSLKPEDTAVYYCAAAYVYSSWSRYDYWGQGTQVTVSS”, “high polyreactivity”.
Consider “QVQLVESGGGLVQAGGSLRLSCAASGRTFWTYTMGWYRQAPGKEREFVAAITFGDGSTSYADSVKGRFTISRDNAKNTVYLQMNSLKPEDTAVYSCAKRWRRRFVDVWSLYDYWGQGTQVTVSS”, for which the “polyreactivity (PSR sort gate)” value is given as “low polyreactivity”.
As to “QVQLVESGGGLVQAGGSLRLSCAASGRIFTQNAMGWYRQAPGKERELVAAITSGGSTYYADSVKGRFTISRDNAKNTVYLQMNSLKPEDTAVYYCAKRYPYYLSTMEYWGQGTQVTVSS”, the “polyreactivity (PSR sort gate)” value is on record as “low polyreactivity”.
For “QDQIVESGGGLVQAGGSLRLSCASSGFTFYVYAMGWYRQAPCKERELVAAISWSGGRTYYAESVKGRFTISRDNAKNTVYLQMNSLKPEDTAVYYCAAYRYYPSYDYWGQGTQVTVSS” the value was “high polyreactivity”; for “QVQLVESGGGLVQAGGSLRLSCAASGRIFVKSAMGWYRPAPGQERELVAAITSDGSTSYADSVKGRFTISRDNAKNTVYLQMNSQKPEDTAVYYCAKDFFEHSPVSHTYSSSKYDYWGQGTQVTVSS”, “low polyreactivity”.
For “QVQLVESGGGLVQAGGSLRLSCAASGRIFYLYAMGWYRQAPGKERELVAAITNSDTSTYYADSVKGRFTISRDNAKNTVYLQMNSLKPEDTAVYYCAVSTQYYYFDYYYWGQGTQVTVSS” the value was “high polyreactivity”; for “QVQLVESGGGLVQAGGSLRLSCAASGSTFNYYAMGWYRQAPGKERELVAAISSSGGTTYYADSVKGRFTISRDNAKNTVYLQMKSLKPEDTAVYYCATDTPPYWGGSHFDYWGQGTQVTVSS”, “low polyreactivity”.
Under “QVQLVESGGGLVQAGGSLRLSCAASGLIFGWNAMGGYRQAPGKERELVAAINSGGITNYADSVKGRFTISRDNAKNTVYLQMYSLKPDDTEVYYCAADVVQYGLDWYGEEYESWGQGTQVTVSS” stands “low polyreactivity”; under “QVQLVESRGGLVQAGGSLRLSCAATGSIFNNYDMGWYRQAPGKERELVADISRGGDTNYADSVKGRFTISRDNAKYTVYLQMTSLNPVDTAVYYCNATYWILDSPWRRETFDYWRQGTQVTVSS”, “low polyreactivity”.
